Measurements as given in patent publication US20260132197A1.

Columns and labels:
[1] = molecular target: cynomolgus CD47 on CHO-K1 stable cell line (cynomolgus); assay: flow cytometry on cynomolgus CD47 CHO-K1 cells; plateau not reached, not accurate
[2] = molecular target: human CD47 on cells (SHP-77 tumor cells, human red blood cells, CCRF-CEM cells, human CD47 CHO-K1 stable cell line) (human) (UniProt Q08722); assay: flow cytometry on human RBCs
[3] = molecular target: human CD47 on cells (SHP-77 tumor cells, human red blood cells, CCRF-CEM cells, human CD47 CHO-K1 stable cell line) (human) (UniProt Q08722); assay: cell-based or functional assay
[4] = molecular target: human CD47 on cells (SHP-77 tumor cells, human red blood cells, CCRF-CEM cells, human CD47 CHO-K1 stable cell line) (human) (UniProt Q08722); assay: flow cytometry on SHP-77 cells
[5] = molecular target: human CD47 on cells (SHP-77 tumor cells, human red blood cells, CCRF-CEM cells, human CD47 CHO-K1 stable cell line) (human) (UniProt Q08722); assay: flow cytometry on human CD47 CHO-K1 cells; plateau not reached, not accurate

EC50 [1]: 9.3 nM | EC50 [2]: 9.7 nM | Fitted maximal MFI [2]: 644 MFI | CCRF-CEM phagocytosis EC50 [3]: 0.4 nM | CCRF-CEM phagocytosis, Phagocytosis (%) [3]: 36.6% | EC50 [4]: 4.9 nM | Fitted maximal MFI [4]: 10500 MFI | EC50 [5]: 10.4 nM
Substance: TTI-622 fusion protein (Fc fusion)
